Values of other authors, collected in publication PMC5035964.

What was measured:
SLAMF1 (Homo sapiens) = SLAMF1 (Homo sapiens) (UniProt Q13291)
Nectin-4 (Homo sapiens) = Nectin-4 (Homo sapiens) (UniProt Q96NY8)
CD46 (Homo sapiens) = CD46 (Homo sapiens) (UniProt P15529)
Sequence of UniProt P15529 (P15529 35-392): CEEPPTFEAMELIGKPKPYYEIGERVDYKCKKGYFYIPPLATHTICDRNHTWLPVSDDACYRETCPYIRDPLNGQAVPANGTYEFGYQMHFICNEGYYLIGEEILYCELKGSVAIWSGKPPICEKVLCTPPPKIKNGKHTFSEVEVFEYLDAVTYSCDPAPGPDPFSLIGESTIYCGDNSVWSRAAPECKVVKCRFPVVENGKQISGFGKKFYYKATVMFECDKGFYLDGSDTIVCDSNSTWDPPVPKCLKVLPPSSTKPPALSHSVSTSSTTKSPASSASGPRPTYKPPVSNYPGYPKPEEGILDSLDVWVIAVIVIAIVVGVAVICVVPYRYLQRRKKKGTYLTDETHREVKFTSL

Sequence of UniProt Q13291 (Q13291 21-335): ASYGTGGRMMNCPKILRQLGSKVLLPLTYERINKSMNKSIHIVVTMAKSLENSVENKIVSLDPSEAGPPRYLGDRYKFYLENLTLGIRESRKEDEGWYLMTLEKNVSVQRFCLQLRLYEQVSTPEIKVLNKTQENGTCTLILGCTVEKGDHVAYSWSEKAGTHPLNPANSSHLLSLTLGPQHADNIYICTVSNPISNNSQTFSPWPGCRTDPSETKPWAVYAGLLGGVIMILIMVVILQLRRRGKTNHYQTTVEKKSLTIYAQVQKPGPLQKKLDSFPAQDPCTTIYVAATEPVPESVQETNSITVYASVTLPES
Sequence of UniProt Q96NY8 (Q96NY8 32-510): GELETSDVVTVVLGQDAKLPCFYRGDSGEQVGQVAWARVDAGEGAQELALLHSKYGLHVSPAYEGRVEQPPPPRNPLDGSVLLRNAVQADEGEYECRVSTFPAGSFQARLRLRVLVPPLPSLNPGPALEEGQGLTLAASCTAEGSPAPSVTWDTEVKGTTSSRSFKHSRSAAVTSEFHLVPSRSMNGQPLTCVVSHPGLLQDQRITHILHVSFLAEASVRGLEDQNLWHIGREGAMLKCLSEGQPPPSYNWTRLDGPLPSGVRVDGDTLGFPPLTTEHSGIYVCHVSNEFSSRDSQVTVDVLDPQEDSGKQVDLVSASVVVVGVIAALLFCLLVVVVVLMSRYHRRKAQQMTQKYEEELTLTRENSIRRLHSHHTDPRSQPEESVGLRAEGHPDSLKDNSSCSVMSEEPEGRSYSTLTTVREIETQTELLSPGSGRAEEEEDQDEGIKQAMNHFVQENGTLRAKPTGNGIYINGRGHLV

| Substance | Kd (SLAMF1 (Homo sapiens)) | Kd (Nectin-4 (Homo sapiens)) | Kd (CD46 (Homo sapiens)) |
| --- | --- | --- | --- |
| Measles virus hemagglutinin (H) (from UniProt P08362) | 80 nM | 20 nM | – |
| Measles virus hemagglutinin (H), Edmonston (from UniProt P08362) | – | – | 79 nM |
